Experimental data: patent publication US20240358847A1 (Merck Sharp & Dohme, published 2024)

T1: TROP2 on BxPC-3 and MDA-MB-231-KWL cells (human, UniProt P09758 27-323)
T1 construct: whole, on cells
T1 sequence (looked up): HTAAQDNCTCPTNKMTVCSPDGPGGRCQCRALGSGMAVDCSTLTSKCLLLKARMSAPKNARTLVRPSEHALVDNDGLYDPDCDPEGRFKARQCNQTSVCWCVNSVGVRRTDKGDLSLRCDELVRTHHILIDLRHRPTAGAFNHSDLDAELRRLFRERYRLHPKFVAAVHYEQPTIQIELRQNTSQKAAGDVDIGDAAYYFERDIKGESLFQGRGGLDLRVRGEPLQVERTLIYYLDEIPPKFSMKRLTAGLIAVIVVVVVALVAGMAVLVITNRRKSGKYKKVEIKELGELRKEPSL

B1: mAb_LC_Hm_W106E (antibody, human IgG1, kappa)
heavy: not shown
light: DIQLTQSPSSLSASVGDRVSITCKASQDVSIAVAWYQQKPGKAPKLLIYSASYRYTGVPDRFSGSGSGTDFTLTISSLQPEDFAVYYCQQHYITPLTFGAGTKVEIKRTVAAPSVFIFPPSDEQLKSGTASVVCLLNNFYPREAKVQWKVDNALQSGNSQESVTEQDSKDSTYSLSSTLTLSKADYEKHKVYACEVTHQGLSSPVTKSFNRGEC
B2: mAb_Lm_I93G_HC (antibody, human IgG1, kappa)
heavy: not shown
light: DIQLTQSPSSLSASVGDRVSITCKASQDVSIAVAWYQQKPGKAPKLLIYSASYRYTGVPDRFSGSGSGTDFTLTISSLQPEDFAVYYCQQHYGTPLTFGAGTKVEIKRTVAAPSVFIFPPSDEQLKSGTASVVCLLNNFYPREAKVQWKVDNALQSGNSQESVTEQDSKDSTYSLSSTLTLSKADYEKHKVYACEVTHQGLSSPVTKSFNRGEC
B3: mAb_Lm_D28H_HC (antibody, human IgG1, kappa)
heavy: not shown
light: DIQLTQSPSSLSASVGDRVSITCKASQHVSIAVAWYQQKPGKAPKLLIYSASYRYTGVPDRFSGSGSGTDFTLTISSLQPEDFAVYYCQQHYITPLTFGAGTKVEIKRTVAAPSVFIFPPSDEQLKSGTASVVCLLNNFYPREAKVQWKVDNALQSGNSQESVTEQDSKDSTYSLSSTLTLSKADYEKHKVYACEVTHQGLSSPVTKSFNRGEC
B4: mAb_Lm_S30R_HC (antibody, human IgG1, kappa)
heavy: not shown
light: DIQLTQSPSSLSASVGDRVSITCKASQDVRIAVAWYQQKPGKAPKLLIYSASYRYTGVPDRFSGSGSGTDFTLTISSLQPEDFAVYYCQQHYITPLTFGAGTKVEIKRTVAAPSVFIFPPSDEQLKSGTASVVCLLNNFYPREAKVQWKVDNALQSGNSQESVTEQDSKDSTYSLSSTLTLSKADYEKHKVYACEVTHQGLSSPVTKSFNRGEC
B5: mAb_Lm_H91K_HC (antibody, human IgG1, kappa)
heavy: not shown
light: DIQLTQSPSSLSASVGDRVSITCKASQDVSIAVAWYQQKPGKAPKLLIYSASYRYTGVPDRFSGSGSGTDFTLTISSLQPEDFAVYYCQQKYITPLTFGAGTKVEIKRTVAAPSVFIFPPSDEQLKSGTASVVCLLNNFYPREAKVQWKVDNALQSGNSQESVTEQDSKDSTYSLSSTLTLSKADYEKHKVYACEVTHQGLSSPVTKSFNRGEC
B6: mAb_Lm_Y53S_HC (antibody, human IgG1, kappa)
heavy: not shown
light: DIQLTQSPSSLSASVGDRVSITCKASQDVSIAVAWYQQKPGKAPKLLIYSASSRYTGVPDRFSGSGSGTDFTLTISSLQPEDFAVYYCQQHYITPLTFGAGTKVEIKRTVAAPSVFIFPPSDEQLKSGTASVVCLLNNFYPREAKVQWKVDNALQSGNSQESVTEQDSKDSTYSLSSTLTLSKADYEKHKVYACEVTHQGLSSPVTKSFNRGEC
B7: mAb_LC_Hm_Y105S (antibody, human IgG1, kappa)
heavy: not shown
light: DIQLTQSPSSLSASVGDRVSITCKASQDVSIAVAWYQQKPGKAPKLLIYSASYRYTGVPDRFSGSGSGTDFTLTISSLQPEDFAVYYCQQHYITPLTFGAGTKVEIKRTVAAPSVFIFPPSDEQLKSGTASVVCLLNNFYPREAKVQWKVDNALQSGNSQESVTEQDSKDSTYSLSSTLTLSKADYEKHKVYACEVTHQGLSSPVTKSFNRGEC
B8: mAb_Lm_S50L_HC (antibody, human IgG1, kappa)
heavy: not shown
light: DIQLTQSPSSLSASVGDRVSITCKASQDVSIAVAWYQQKPGKAPKLLIYLASYRYTGVPDRFSGSGSGTDFTLTISSLQPEDFAVYYCQQHYITPLTFGAGTKVEIKRTVAAPSVFIFPPSDEQLKSGTASVVCLLNNFYPREAKVQWKVDNALQSGNSQESVTEQDSKDSTYSLSSTLTLSKADYEKHKVYACEVTHQGLSSPVTKSFNRGEC
B9: mAb_LC_Hm_Y32E (antibody, human IgG1, kappa)
heavy: not shown
light: DIQLTQSPSSLSASVGDRVSITCKASQDVSIAVAWYQQKPGKAPKLLIYSASYRYTGVPDRFSGSGSGTDFTLTISSLQPEDFAVYYCQQHYITPLTFGAGTKVEIKRTVAAPSVFIFPPSDEQLKSGTASVVCLLNNFYPREAKVQWKVDNALQSGNSQESVTEQDSKDSTYSLSSTLTLSKADYEKHKVYACEVTHQGLSSPVTKSFNRGEC
B10: mAb_Lm_Q89V_HC (antibody, human IgG1, kappa)
heavy: not shown
light: DIQLTQSPSSLSASVGDRVSITCKASQDVSIAVAWYQQKPGKAPKLLIYSASYRYTGVPDRFSGSGSGTDFTLTISSLQPEDFAVYYCVQHYITPLTFGAGTKVEIKRTVAAPSVFIFPPSDEQLKSGTASVVCLLNNFYPREAKVQWKVDNALQSGNSQESVTEQDSKDSTYSLSSTLTLSKADYEKHKVYACEVTHQGLSSPVTKSFNRGEC
B11: mAb_LC_Hm_W106L (antibody, human IgG1, kappa)
heavy: not shown
light: DIQLTQSPSSLSASVGDRVSITCKASQDVSIAVAWYQQKPGKAPKLLIYSASYRYTGVPDRFSGSGSGTDFTLTISSLQPEDFAVYYCQQHYITPLTFGAGTKVEIKRTVAAPSVFIFPPSDEQLKSGTASVVCLLNNFYPREAKVQWKVDNALQSGNSQESVTEQDSKDSTYSLSSTLTLSKADYEKHKVYACEVTHQGLSSPVTKSFNRGEC
B12: mAb_Lm_Y53N_HC (antibody, human IgG1, kappa)
heavy: not shown
light: DIQLTQSPSSLSASVGDRVSITCKASQDVSIAVAWYQQKPGKAPKLLIYSASNRYTGVPDRFSGSGSGTDFTLTISSLQPEDFAVYYCQQHYITPLTFGAGTKVEIKRTVAAPSVFIFPPSDEQLKSGTASVVCLLNNFYPREAKVQWKVDNALQSGNSQESVTEQDSKDSTYSLSSTLTLSKADYEKHKVYACEVTHQGLSSPVTKSFNRGEC
B13: mAb_LC_Hm_Y107I (antibody, human IgG1, kappa)
heavy: not shown
light: DIQLTQSPSSLSASVGDRVSITCKASQDVSIAVAWYQQKPGKAPKLLIYSASYRYTGVPDRFSGSGSGTDFTLTISSLQPEDFAVYYCQQHYITPLTFGAGTKVEIKRTVAAPSVFIFPPSDEQLKSGTASVVCLLNNFYPREAKVQWKVDNALQSGNSQESVTEQDSKDSTYSLSSTLTLSKADYEKHKVYACEVTHQGLSSPVTKSFNRGEC
B14: mAb_Lm_A32Q_HC (antibody, human IgG1, kappa)
heavy: not shown
light: DIQLTQSPSSLSASVGDRVSITCKASQDVSIQVAWYQQKPGKAPKLLIYSASYRYTGVPDRFSGSGSGTDFTLTISSLQPEDFAVYYCQQHYITPLTFGAGTKVEIKRTVAAPSVFIFPPSDEQLKSGTASVVCLLNNFYPREAKVQWKVDNALQSGNSQESVTEQDSKDSTYSLSSTLTLSKADYEKHKVYACEVTHQGLSSPVTKSFNRGEC
B15: mAb_Lm_T94F_HC (antibody, human IgG1, kappa)
heavy: not shown
light: DIQLTQSPSSLSASVGDRVSITCKASQDVSIAVAWYQQKPGKAPKLLIYSASYRYTGVPDRFSGSGSGTDFTLTISSLQPEDFAVYYCQQHYIFPLTFGAGTKVEIKRTVAAPSVFIFPPSDEQLKSGTASVVCLLNNFYPREAKVQWKVDNALQSGNSQESVTEQDSKDSTYSLSSTLTLSKADYEKHKVYACEVTHQGLSSPVTKSFNRGEC
B16: mAb_Lm_A32P_HC (antibody, human IgG1, kappa)
heavy: not shown
light: DIQLTQSPSSLSASVGDRVSITCKASQDVSIPVAWYQQKPGKAPKLLIYSASYRYTGVPDRFSGSGSGTDFTLTISSLQPEDFAVYYCQQHYITPLTFGAGTKVEIKRTVAAPSVFIFPPSDEQLKSGTASVVCLLNNFYPREAKVQWKVDNALQSGNSQESVTEQDSKDSTYSLSSTLTLSKADYEKHKVYACEVTHQGLSSPVTKSFNRGEC
B17: mAb_LC_Hm_Y107N (antibody, human IgG1, kappa)
heavy: not shown
light: DIQLTQSPSSLSASVGDRVSITCKASQDVSIAVAWYQQKPGKAPKLLIYSASYRYTGVPDRFSGSGSGTDFTLTISSLQPEDFAVYYCQQHYITPLTFGAGTKVEIKRTVAAPSVFIFPPSDEQLKSGTASVVCLLNNFYPREAKVQWKVDNALQSGNSQESVTEQDSKDSTYSLSSTLTLSKADYEKHKVYACEVTHQGLSSPVTKSFNRGEC
B18: mAb_Lm_S50T_HC (antibody, human IgG1, kappa)
heavy: not shown
light: DIQLTQSPSSLSASVGDRVSITCKASQDVSIAVAWYQQKPGKAPKLLIYTASYRYTGVPDRFSGSGSGTDFTLTISSLQPEDFAVYYCQQHYITPLTFGAGTKVEIKRTVAAPSVFIFPPSDEQLKSGTASVVCLLNNFYPREAKVQWKVDNALQSGNSQESVTEQDSKDSTYSLSSTLTLSKADYEKHKVYACEVTHQGLSSPVTKSFNRGEC

Experiments:
[1] = target: T1, TROP2 on BxPC-3 and MDA-MB-231-KWL cells; test: on-cell ELISA, MDA-MB-231-KWL cells (TROP2 low); set-up: unit not given beside the values
Procedure: (§1) Cells were plated in duplicate onto 96-well plates, and primary antibody was diluted in cell culture medium with a starting concentration of 30 μg/mL (200 nM) with a dilution factor of 1:5. […] Data was plotted and analyzed. EC50 ([…]) was measured along with area under the curve (AUC) for each cell line.

[2] = target: T1, TROP2 on BxPC-3 and MDA-MB-231-KWL cells; test: on-cell ELISA, BxPC-3 cells (TROP2 high); set-up: unit not given beside the values
Procedure: as §1

[3] = target: T1, TROP2 on BxPC-3 and MDA-MB-231-KWL cells; test: on-cell ELISA, BxPC-3 vs MDA-MB-231-KWL cells
Procedure: as §1

| AUC (MDA-MB-231-KWL) [1] | AUC (BxPC-3) [2] | ΔAUC [3] | Binder |
| --- | --- | --- | --- |
| 22.2 | 140 | 117 | B1 |
| 220 | 305 | 85.3 | B2 |
| 214 | 300 | 86.6 | B3 |
| 47.1 | 216 | 169 | B4 |
| 162 | 294 | 132 | B5 |
| 205 | 307 | 102 | B6 |
| 80 | 268 | 188 | B7 |
| 4.22 | 133 | 129 | B8 |
| 193 | 298 | 104 | B9 |
| 201 | 299 | 98.1 | B10 |
| 60.9 | 251 | 191 | B11 |
| 140 | 309 | 169 | B12 |
| 163 | 265 | 101 | B13 |
| 17.8 | 142 | 124 | B14 |
| 240 | 318 | 77.4 | B15 |
| 64.3 | 256 | 192 | B16 |
| 230 | 317 | 86.5 | B17 |
| 157 | 305 | 148 | B18 |
